Positions count from the first letter of the chain named. Blank lines part the entries; values can stand above or below the molecule they belong to.
Key:
[1] = target: KaiA (UniProt Q79PF6); assay: HS-AFM single-molecule dwell time
[2] = target: KaiA (UniProt Q79PF6); assay: HS-AFM single-molecule dwell time; remark: listed apart in the source
[3] = target: the molecule itself; assay: high-speed atomic force microscopy (HS-AFM); KaiC^WT alone immobilised on bare mica (N-terminal side seen), images compared with an AFM image simulated from the crystal structure
[4] = target: T1, KaiC-AE (mimic of S/pT) (S. elongatus, UniProt Q79PF4 1-519, KaiC-AE (S431 to A) | KaiC-AE (T432 to E)); assay: high-speed atomic force microscopy (HS-AFM); as Fig. 3 but with 1 mM ATP in the observation buffer (Supplementary Fig. 4); KaiC phospho-mimics on AP-mica, KaiA in solution; settings: both partners purified
T1 construct: KaiC of Synechococcus elongatus with the two phosphorylation sites S431 and T432 changed to A and E; the two substitutions are read from these; source: E. coli BL21 or DH5α, pGEX-based construct, purified (glutathione-agarose, HRV3C cleavage on the column, Q Sepharose); not shown: GST, N-terminal, cleaved
T1 sequence: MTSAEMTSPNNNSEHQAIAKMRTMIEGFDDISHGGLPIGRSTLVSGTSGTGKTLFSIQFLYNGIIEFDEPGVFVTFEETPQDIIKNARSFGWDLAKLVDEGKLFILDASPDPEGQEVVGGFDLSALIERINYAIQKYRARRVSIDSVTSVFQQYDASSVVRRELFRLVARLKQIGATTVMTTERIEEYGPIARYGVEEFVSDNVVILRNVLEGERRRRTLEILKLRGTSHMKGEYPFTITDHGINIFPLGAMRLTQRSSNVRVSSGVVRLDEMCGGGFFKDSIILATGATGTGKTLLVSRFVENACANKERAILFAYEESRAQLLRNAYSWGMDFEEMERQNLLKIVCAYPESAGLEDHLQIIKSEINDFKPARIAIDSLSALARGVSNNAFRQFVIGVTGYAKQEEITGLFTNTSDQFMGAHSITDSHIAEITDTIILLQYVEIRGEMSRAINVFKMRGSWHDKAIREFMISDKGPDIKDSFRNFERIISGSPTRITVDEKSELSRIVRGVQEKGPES

[5] = target: T2, KaiC-AA (mimic of S/T) (S. elongatus, UniProt Q79PF4 1-519, KaiC-AA (S431 to A) | KaiC-AA (T432 to A)); assay: as above; settings: both partners purified
T2 construct: KaiC of Synechococcus elongatus with the two phosphorylation sites S431 and T432 changed to A and A; the two substitutions are read from these; source: E. coli BL21 or DH5α, pGEX-based construct, purified (glutathione-agarose, HRV3C cleavage on the column, Q Sepharose); not shown: GST, N-terminal, cleaved
T2 sequence: T1 sequence with E432A

[6] = target: T3, KaiC-DE (mimic of pS/pT) (S. elongatus, UniProt Q79PF4 1-519, KaiC-DE (S431 to D) | KaiC-DE (T432 to E)); assay: as above; settings: both partners purified
T3 construct: KaiC of Synechococcus elongatus with the two phosphorylation sites S431 and T432 changed to D and E; the two substitutions are read from these; source: E. coli BL21 or DH5α, pGEX-based construct, purified (glutathione-agarose, HRV3C cleavage on the column, Q Sepharose); not shown: GST, N-terminal, cleaved
T3 sequence: T1 sequence with A431D

[7] = target: T1, KaiC-AE (mimic of S/pT); assay: high-speed atomic force microscopy (HS-AFM); KaiC phospho-mimics on AP-mica (CII end up), 1 μM KaiA in solution, no ATP; dwell time of the KaiA-bound state from images at 10 fps, fitted to a first order model; 20 mM Tris-HCl pH 8.0, 5 mM MgCl2, 25-28 °C; settings: both partners purified
[8] = target: T3, KaiC-DE (mimic of pS/pT); assay: as above; settings: both partners purified
[9] = target: T4, KaiC-DA (mimic of pS/T) (S. elongatus, UniProt Q79PF4 1-519, KaiC-DA (S431 to D) | KaiC-DA (T432 to A)); assay: as above; settings: both partners purified
T4 construct: KaiC of Synechococcus elongatus with the two phosphorylation sites S431 and T432 changed to D and A; the two substitutions are read from these; source: E. coli BL21 or DH5α, pGEX-based construct, purified (glutathione-agarose, HRV3C cleavage on the column, Q Sepharose); not shown: GST, N-terminal, cleaved
T4 sequence: T1 sequence with A431D, E432A

[10] = reference: KaiC-AA (S431A/T432A), sites S431,T432
[11] = reference: KaiC-AE (S431A/T432E), sites S431
[12] = reference: KaiC-AA (S431A/T432A), sites S431
[13] = reference: KaiC-AA (S431A/T432A), sites T432

Molecule: KaiC (from UniProt Q79PF4) KaiC-DA (S431D/T432A)
other: bound-state lifetime τbound [1, 12]: 0.43 s
other: bound-state lifetime τbound [2, 12]: 0.43 s

Molecule: KaiC (from UniProt Q79PF4) hyperphosphorylated KaiCWT (~81% phosphorylated)
other: bound-state lifetime τbound ([1]; reference: hypo-phosphorylated KaiCWT (~27% phosphorylated), sites S431,T432): weaker; reference 1.12 ± 0.03

Molecule: KaiC (from UniProt Q79PF4) KaiC-AE (S431A/T432E)
other: bound-state lifetime τbound [1, 13]: 1 s
other: bound-state lifetime τbound [2, 13]: 0.95 s

B1: native wild-type KaiC hexamer (KaiC^WT) (natural protein, S. elongatus)
chain: T1 sequence with A431S, E432T
notes: circadian clock protein KaiC of Synechococcus elongatus, native (unmutated); also called native KaiC; C6; source: E. coli BL21 or DH5α, pGEX-based construct, purified (glutathione-agarose, HRV3C cleavage on the column, Q Sepharose; 5 mM MgCl2 and 1 mM ATP throughout); not shown: GST, N-terminal, cleaved
stoichiometry N [3]: 6

Now from value to molecule, other results behind:

other: bound-state lifetime τbound [1, 10]: 0.26 s
other: bound-state lifetime τbound [2, 10]: 0.31 s
other: bound-state lifetime τbound ([2]; reference: KaiC-DA (S431D/T432A), sites T432): weaker; reference 0.43 ± 0.01
Molecule: KaiC (from UniProt Q79PF4) KaiC-DE (S431D/T432E)
other: bound-state lifetime τbound [1, 11]: weaker; reference 1.00 ± 0.15
other: bound-state lifetime τbound [2, 11]: weaker; reference 0.95 ± 0.04

other: bound-state lifetime τbound ([1]; reference: KaiCWT from trough phosphorylation phase (15 h), sites S431,T432): weaker; reference 0.77 ± 0.05
Molecule: KaiC (from UniProt Q79PF4) KaiCWT from peak phosphorylation phase (24 h)

binding result [5]: binds
τ_(bound) (dwell time of the bound state) [6]: 0.31 s
τ_(bound) (dwell time of the bound state) [8]: 0.26 s
τ_(bound) (dwell time of the bound state) [9]: 0.43 s
B2: KaiA (natural protein, S. elongatus, UniProt Q79PF6 1-284, looked up)
chain: MLSQIAICIWVESTAILQDCQRALSADRYQLQVCESGEMLLEYAQTHRDQIDCLILVAANPSFRAVVQQLCFEGVVVPAIVVGDRDSEDPDEPAKEQLYHSAELHLGIHQLEQLPYQVDAALAEFLRLAPVETMADHIMLMGANHDPELSSQQRDLAQRLQERLGYLGVYYKRDPDRFLRNLPAYESQKLHQAMQTSYREIVLSYFSPNSNLNQSIDNFVNMAFFADVPVTKVVEIHMELMDEFAKKLRVEGRSEDILLDYRLTLIDVIAHLCEMYRRSIPRET
notes: circadian clock protein KaiA of Synechococcus elongatus, native (unmutated); also called native KaiA; KaiA dimer; source: E. coli BL21 or DH5α, pGEX-based construct, purified (glutathione-agarose, HRV3C cleavage on the column, Q Sepharose); not shown: GST, N-terminal, cleaved
τ_(bound) (dwell time of the bound state) [4]: 0.95 s
τ_(bound) (dwell time of the bound state) [7]: 1 s

Source: article PMC6092398, “Revealing circadian mechanisms of integration and resilience by visualizing clock proteins working in real time” (Nature Communications, 2018)
